For orientation: stoichiometry N means a count of units in the complex or per binding partner.

The target of experiment [1] is DS-Cav1 (respiratory syncytial virus subtype A, strain A2 | not stated) (UniProt P03420). In words: SEC.
The target in experiment [2] is DS-Cav1-His6 (respiratory syncytial virus subtype A, strain A2 | not stated) (UniProt P03420). In words: negative-stain EM.
The target is the same in experiment [3]. In words: SEC. For orientation: Size exclusion chromatography separates by hydrodynamic size, large species first.
Experiment [4] has the same target. In words: cross-linking.
Experiment [5] deals with SC-TM-His6 (respiratory syncytial virus subtype A, strain A2 | not stated) (UniProt P03420). In words: SEC.
For experiment [6] the target is unchanged. Nature of the experiment: cross-linking.
The target in experiment [7] is sc9-10 DS-Cav1 (respiratory syncytial virus subtype A, strain A2 | not stated) (UniProt P03420). Nature of the experiment: SEC.
Experiment [8] has as its target sc9-10 DS-Cav1-His6 (respiratory syncytial virus subtype A, strain A2 | not stated) (UniProt P03420). Nature of the experiment: SEC.
Experiment [9] shares this target. In words: cross-linking.
Another experiment deals with UFCM1-P2 (human metapneumovirus, Q1A2Z0 …, UniProt Q1A2Z0, E80D | T127C | N153C | A185P | V155P). Nature of the experiment: ELISA. (ELISA stands for enzyme-linked immunosorbent assay.)
A further experiment deals with 847A-His6 (human respiratory syncytial virus A, …, UniProt A0A7D5GVC1, I148C | D486S). In words: ELISA.
In a further experiment the target is UFCM1 (human metapneumovirus, Q1A2Z0 …, UniProt Q1A2Z0, E80D | T127C | N153C | A185P). In words: ELISA.
A further experiment has as its target T1, UFCM1-P2-iSS (Human metapneumovirus, strain NL/1/00 …, stabilised).
T1 chain: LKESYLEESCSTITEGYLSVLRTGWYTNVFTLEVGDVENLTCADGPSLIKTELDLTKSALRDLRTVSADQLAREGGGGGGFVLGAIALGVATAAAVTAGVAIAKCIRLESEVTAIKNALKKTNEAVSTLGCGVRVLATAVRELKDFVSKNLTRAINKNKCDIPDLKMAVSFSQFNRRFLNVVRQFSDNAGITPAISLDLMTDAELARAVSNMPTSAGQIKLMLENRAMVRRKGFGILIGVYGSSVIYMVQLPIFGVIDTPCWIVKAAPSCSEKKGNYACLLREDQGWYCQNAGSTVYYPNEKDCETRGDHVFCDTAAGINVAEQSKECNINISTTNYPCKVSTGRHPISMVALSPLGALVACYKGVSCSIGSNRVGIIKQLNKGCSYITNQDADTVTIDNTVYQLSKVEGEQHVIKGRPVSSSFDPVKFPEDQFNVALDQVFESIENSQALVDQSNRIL
Nature of the experiment: negative-stain EM.

The next experiment deals with T2, sc9-10 DS-Cav1 (Human respiratory syncytial virus A, …, S215P | A149C | Y458C | S46G | K465Q).
T2 chain: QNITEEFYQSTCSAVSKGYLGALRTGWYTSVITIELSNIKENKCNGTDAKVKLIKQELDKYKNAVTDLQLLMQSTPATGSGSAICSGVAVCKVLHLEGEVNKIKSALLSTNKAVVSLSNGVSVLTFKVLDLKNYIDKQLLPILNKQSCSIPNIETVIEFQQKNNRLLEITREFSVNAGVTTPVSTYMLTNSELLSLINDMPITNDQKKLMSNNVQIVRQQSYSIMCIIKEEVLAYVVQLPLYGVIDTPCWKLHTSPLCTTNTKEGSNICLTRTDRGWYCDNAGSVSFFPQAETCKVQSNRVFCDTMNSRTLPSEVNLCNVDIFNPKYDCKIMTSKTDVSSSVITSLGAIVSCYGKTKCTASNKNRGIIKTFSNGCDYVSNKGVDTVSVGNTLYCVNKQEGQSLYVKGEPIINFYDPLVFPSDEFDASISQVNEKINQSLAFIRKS
Nature of the experiment: cell-based or functional assay.

For the molecule “DS-Cav1 (from UniProt P03420 137-513) (domain or fragment)”, the stoichiometry N in experiment [1] was 3.

In the case of “DS-Cav1-His6 (from UniProt P03420 137-513) (domain or fragment)”, the stoichiometry N in [2], in experiment [3] and in [4] was 3 each time.

On to “SC-TM-His6 (from UniProt P03420 26-513) (domain or fragment)”, for which the stoichiometry N in [5] and in [6] was 3 each time.

In the case of “sc9-10 DS-Cav1 (from UniProt P03420 26-513) (domain or fragment)”, the stoichiometry N in experiment [7] came to 3.

With “sc9-10 DS-Cav1-His6 (from UniProt P03420 26-513) (domain or fragment)”, the stoichiometry N in [8] and in [9] was 3 each time.

B1: MPE8 IgG (antibody, V domains shown)
VH: EVQLVESGGGLVKPGGSLRLSCAASGFTFSSYSMNWVRQAPGKGLEWVSSISASSSYSDYADSAKGRFTISRDNAKTSLFLQMNSLRAEDTAIYFCARARATGYSSITPYFDIWGQGTLVTVSS
VL: QSVVTQTPSVSGAPGQRVTISCTGSSSNIGAGYDVHWYQQLPGTAPKLLIYDNNNRPSGVPDRFSASKSGTSASLAITGLQAEDEADYYCQSYDRNLSGVFGTGTKVTVL
With B1, the binding result with UFCM1-P2, with 847A-His6 and in the experiment with UFCM1 was “binds” each time.

B2: MPE8 Fab (Fab, V domains shown)
VH: EVQLVESGGGLVKPGGSLRLSCAASGFTFSSYSMNWVRQAPGKGLEWVSSISASSSYSDYADSAKGRFTISRDNAKTSLFLQMNSLRAEDTAIYFCARARATGYSSITPYFDIWGQGTLVTVSS
VL: QSVVTQTPSVSGAPGQRVTISCTGSSSNIGAGYDVHWYQQLPGTAPKLLIYDNNNRPSGVPDRFSASKSGTSASLAITGLQAEDEADYYCQSYDRNLSGVFGTGTKVTVL
With B2, in the experiment with UFCM1-P2-iSS, the “stoichiometry N” value came out at 3 Fabs per trimer.

B3: A4 scFv-Fc (scFv, V domains shown)
VH: EVQLVESGGGLVQPGGSLRLSCAASGFTFTTYAMHWVRQSPGKGLEWLASISYDGTSQYYAESVKGRFTVSRDNSKKTLLLQVNSLRPEDTAVYYCAGSPSGHYSWLGYFYAMDVWGQGTLVTVSS
VL: QSALTQPASVSGSPGQSITISCTGASSDVGGYDYVSWYQQHPGKAPKLLIYDVSDRPSGVSNRFSGSKSGNTASLTISGLQTEDEADYYCSSYTSKNTLIFGGGTKLTVL
On to B3, for which the “live RSV (RSV-A2-GFP) neutralization, IC50, scFv-Fc form” value with sc9-10 DS-Cav1 worked out at 2.1 ng/mL.

For the origin of these results see publication PMC11569192 (Nature Communications, 2024).
